Measurements reported in PMC9929037.

Biological target: nLUC-TaPYL-1D (Triticum aestivum (bread wheat))
Test: split reporter (BiFC, NanoBiT); LCI of cLUC-TaPP2C-7A with nLUC-TaPYL-1D in N. benthamiana leaves with a third protein co-expressed (TN1-GFP, tn1-GFP or GFP empty vector); relative luminescence, GFP EV combination set to 1

For TN1-GFP (natural protein), the percent decrease of LUC intensity of cLUC-TaPP2C-7A/nLUC-TaPYL-1D against the GFP EV samples was > 50%.
